Assay results taken from publication PMC4784688 (Developmental cell, 2015).

T1: Slitrk5 (UniProt O94991)
T1 chain: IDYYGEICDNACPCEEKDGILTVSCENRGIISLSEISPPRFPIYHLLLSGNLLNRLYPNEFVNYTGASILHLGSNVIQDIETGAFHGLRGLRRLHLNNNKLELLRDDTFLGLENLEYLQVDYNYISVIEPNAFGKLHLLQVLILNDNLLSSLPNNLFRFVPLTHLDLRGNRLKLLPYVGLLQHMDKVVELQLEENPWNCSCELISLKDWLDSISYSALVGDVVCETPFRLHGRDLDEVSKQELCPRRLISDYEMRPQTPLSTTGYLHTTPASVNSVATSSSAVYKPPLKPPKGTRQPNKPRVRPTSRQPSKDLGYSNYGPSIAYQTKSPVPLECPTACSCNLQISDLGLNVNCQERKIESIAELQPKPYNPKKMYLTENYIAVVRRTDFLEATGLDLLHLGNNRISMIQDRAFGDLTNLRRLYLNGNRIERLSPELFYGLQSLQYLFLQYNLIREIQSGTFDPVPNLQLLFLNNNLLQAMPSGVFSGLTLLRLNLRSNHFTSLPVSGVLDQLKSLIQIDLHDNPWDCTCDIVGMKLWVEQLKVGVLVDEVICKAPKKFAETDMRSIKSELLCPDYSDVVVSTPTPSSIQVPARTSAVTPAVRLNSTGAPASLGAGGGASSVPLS

T2: soluble purified PTPδ ectodomain fused to the Fc region of human immunoglobulin (UniProt Q64487 21-1266)
T2 sequence (looked up): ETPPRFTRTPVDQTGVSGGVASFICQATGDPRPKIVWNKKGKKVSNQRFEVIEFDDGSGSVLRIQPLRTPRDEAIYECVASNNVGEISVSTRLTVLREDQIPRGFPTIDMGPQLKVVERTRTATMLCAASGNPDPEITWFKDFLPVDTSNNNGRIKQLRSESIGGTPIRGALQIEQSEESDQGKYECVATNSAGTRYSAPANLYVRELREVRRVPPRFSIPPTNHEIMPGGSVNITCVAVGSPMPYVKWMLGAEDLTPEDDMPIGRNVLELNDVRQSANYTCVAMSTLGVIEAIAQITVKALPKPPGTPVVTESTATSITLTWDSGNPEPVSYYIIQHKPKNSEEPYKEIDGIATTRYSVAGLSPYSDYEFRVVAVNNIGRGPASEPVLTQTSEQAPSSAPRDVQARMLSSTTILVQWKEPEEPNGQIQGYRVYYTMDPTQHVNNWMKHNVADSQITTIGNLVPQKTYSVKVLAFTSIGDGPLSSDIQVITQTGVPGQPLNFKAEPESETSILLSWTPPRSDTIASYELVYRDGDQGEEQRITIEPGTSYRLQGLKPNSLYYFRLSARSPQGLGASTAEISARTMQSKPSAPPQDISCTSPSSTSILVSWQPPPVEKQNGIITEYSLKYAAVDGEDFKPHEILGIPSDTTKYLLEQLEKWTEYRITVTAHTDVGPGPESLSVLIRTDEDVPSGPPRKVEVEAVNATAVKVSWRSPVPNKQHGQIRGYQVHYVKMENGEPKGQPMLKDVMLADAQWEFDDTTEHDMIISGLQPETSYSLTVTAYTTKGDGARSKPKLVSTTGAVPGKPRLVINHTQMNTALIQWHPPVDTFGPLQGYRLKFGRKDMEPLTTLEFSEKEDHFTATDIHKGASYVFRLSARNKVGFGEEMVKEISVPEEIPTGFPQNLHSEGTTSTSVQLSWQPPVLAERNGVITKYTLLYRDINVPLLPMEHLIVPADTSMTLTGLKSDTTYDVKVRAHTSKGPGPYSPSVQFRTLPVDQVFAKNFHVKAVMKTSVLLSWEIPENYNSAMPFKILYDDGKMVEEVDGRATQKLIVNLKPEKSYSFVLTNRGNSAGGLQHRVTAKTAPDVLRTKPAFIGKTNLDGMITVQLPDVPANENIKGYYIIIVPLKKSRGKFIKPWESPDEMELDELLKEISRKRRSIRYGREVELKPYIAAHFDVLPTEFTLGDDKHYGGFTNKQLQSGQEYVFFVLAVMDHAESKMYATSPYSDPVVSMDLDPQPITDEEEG


Assays:
Slitrk5 = target: T1, Slitrk5; assay: PTPδ-Fc dissociation from cells
[1] = target: T2, soluble purified PTPδ ectodomain fused …; assay: immunostaining of cells or tissue

Row | Kd (Slitrk5) [nM] | Kd [1] [nM] | Binder
1 | ~0.9 | – | BDNF (protein) HSDPARRGELSVCDSISEWVTAADKKTAVDMSGGTVTVLEKVPVSKGQLKQYFYETKCNPMGYTKEGCRGIDKRHWNSQCRTTQSYVRALTMDSKKRIGWRFIRIDTSCVCTLTIKRGR
2 | – | ~100 | HA-tagged Slitrk5 (WT, full-length) (natural protein, UniProt Q810B7 41-957, looked up) IDYYGEICDNACPCEEKDGILTVSCENRGIISLSEISPPRFPIYHLLLSGNLLSRLYPNEFVNYTGASILHLGSNVIQDIETGAFHGLRGLRRLHLNNNKLELLRDDTFLGLENLEYLQVDYNYISVIEPNAFGKLHMLQVLILNDNLLSGLPNNLFRFVPLTHLDLRGNRLKLLPYVGLLQHMDKVVELQLEENPWNCSCELISLKDWLDSISYSALVGDVVCETPFRLHGRDLDEVSKQELCPRKLISDYEMRPQTPLSTTGYLHTTPASVNSVATSSSAVYKPPLKPPKGTRQPNKPRVRPTSRQPSKDLGYSNYGPSIAYQTKSPVPLECPTACTCNLQISDLGLNVNCQERKIESIAELQPKPYNPKKMYLTENYITVVRRTDFLEATGLDLLHLGNNRISMIQDRAFGDLGNLRRLYLNGNRIERLSPELFYGLQSLQYLFLQYNLIREIQAGTFDPVPNLQLLFLNNNQLQAMPSGVFSGLTLLRLNLRGNSFTSLPVSGVLDQLTSLIQIDLHDNPWDCTCDVVGMKLWIEQLKVGVLVDEVICKAPKKFAETYMRSIKSELLCPDYSDVVVSTPTPSSIQVPSRTNAATPAVRLNSTGTPAGLGAGTGASSVPLSVLILSLLLVFIMSVFVAAGLFVLVMKRRKKNQSDHTSTNNSDVSSFNMQYSVYGGGGGGGGGHPHAHVHHRGPALPKVKTPAGHVYEYIPHPLGHMCKNPIYRSREGNSVEDYKDLHELKVTYSSNHHLQQQPPPPPQQPQQQPPPQMQMQPGEEERRESHHLRSPAYSVSTIEPREDLLSPVQDADRFYRGILEPDKHCSTTPAGSSLPEYPKFPCSPAAYTFSPNYDLRRPHQYLHPGAGESRLREPVLYSPPGAVFVEPNRNEYLELKAKLNVEPDYLEVLEKQTTFSQF
